Measurements as given in paper PMC2266617.

Molecular target: Kv4.2-T1 domain (tetramerization domain of Kv4.2) with a poly-His tag at the NH2 terminus
Assay: SEC

Sequence of Kv4.2-T1 domain (tetramerization domain of Kv4.2) with a poly-His tag at the NH2 terminus (Q63881 whole entry, the tested form may be a part): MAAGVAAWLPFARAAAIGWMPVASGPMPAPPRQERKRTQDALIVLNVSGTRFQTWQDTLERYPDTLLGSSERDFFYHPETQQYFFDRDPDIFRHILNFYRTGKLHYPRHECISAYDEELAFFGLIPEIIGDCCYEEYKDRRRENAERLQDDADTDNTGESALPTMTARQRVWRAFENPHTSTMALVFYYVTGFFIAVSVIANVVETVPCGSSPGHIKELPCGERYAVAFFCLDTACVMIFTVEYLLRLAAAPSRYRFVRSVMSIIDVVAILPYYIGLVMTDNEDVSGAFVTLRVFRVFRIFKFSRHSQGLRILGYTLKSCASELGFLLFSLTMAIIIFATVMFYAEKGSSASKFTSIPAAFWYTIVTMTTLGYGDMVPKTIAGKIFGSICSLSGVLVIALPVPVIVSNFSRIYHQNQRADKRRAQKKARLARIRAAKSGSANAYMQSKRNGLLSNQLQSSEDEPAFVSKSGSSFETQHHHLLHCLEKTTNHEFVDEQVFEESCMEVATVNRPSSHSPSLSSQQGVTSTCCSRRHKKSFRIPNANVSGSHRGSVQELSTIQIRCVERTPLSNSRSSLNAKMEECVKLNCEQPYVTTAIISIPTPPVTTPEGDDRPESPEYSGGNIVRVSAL

“Kv4.2-T1 domain (tetramerization domain of Kv4.2) with a poly-His tag at the NH2 terminus (domain or fragment)” showed a stoichiometry N of 4.
